According to the supplement of paper PMC7125110:
± gives the standard error. For some assays here: Fewer inactive variants are shown than the library holds.

B1: glmS ribozyme (parent)
chain: AUAAAAGCGCCAGAACUACAGAAAUGUAGUUGACGAGGAGGAGGUUUAUCGAAUUUUCGGCGGAUGCCUCCAAA

What was measured:
Details in all cases: with glucosamine-6-phosphate
glucosamine-6-phosphate [1] = variants of: B1; assay: kcat; higher = faster cleavage; RNA array
How it was run: (§1)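 Glucosamine-6-phosphate (40 μM to 10 mM) in HEPES/KCl/Mg(OAc)2 buffer was flowed over sequenced MiSeq chips, and tiles were imaged over ~14 h. Barcoded ribozyme variants there had been transcribed in situ by E. coli RNA polymerase and were tracked through a hybridised Cy3 probe at 37 °C. One- or two-exponential decay fits to per-tile medians, normalised to baseline and to non-cleaving reference variants, gave kobs. kcat and KM came from weighted Michaelis–Menten fits across concentrations.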

glucosamine-6-phosphate [2] = variants of: B1; assay: KM; higher = weaker cofactor use; RNA array
How it was run: as §1

glucosamine-6-phosphate [3] = variants of: B1; assay: self-cleavage kobs at 640 uM GlcN6P; higher = faster cleavage; RNA array
How it was run: as §1

glucosamine-6-phosphate [4] = variants of: B1; assay: self-cleavage kobs at 2500 uM GlcN6P; higher = faster cleavage; RNA array
How it was run: as §1

glucosamine-6-phosphate [5] = variants of: B1; assay: self-cleavage kobs at 10000 uM GlcN6P; higher = faster cleavage; RNA array
How it was run: as §1

glucosamine-6-phosphate [6] = variants of: B1; assay: self-cleavage kobs at 40 uM GlcN6P; higher = faster cleavage; RNA array
How it was run: as §1

glucosamine-6-phosphate [7] = variants of: B1; assay: self-cleavage kobs at 160 uM GlcN6P; higher = faster cleavage; RNA array
How it was run: as §1

Variant	kcat (glucosamine-6-phosphate [1]) [s⁻¹]	KM (glucosamine-6-phosphate [2]) [mM]	self-cleavage kobs at 640 uM GlcN6P (glucosamine-6-phosphate [3]) [s⁻¹]	self-cleavage kobs at 2500 uM GlcN6P (glucosamine-6-phosphate [4]) [s⁻¹]	self-cleavage kobs at 10000 uM GlcN6P (glucosamine-6-phosphate [5]) [s⁻¹]	self-cleavage kobs at 40 uM GlcN6P (glucosamine-6-phosphate [6]) [s⁻¹]	self-cleavage kobs at 160 uM GlcN6P (glucosamine-6-phosphate [7]) [s⁻¹]
AUAAAAGCGCCAGUACUACAGAAAUGUAGUUGACGAGGAGGAGGCUUAUCGAAUUUUCGGCGGAUGCCUCCAAA [A14U U45C]	0.000739 ± 0.00014	3.32 ± 1.2	0.000105 ± 1.9e-05	0.000436 ± 6.7e-05	0.000531 ± 6e-05		
AUAAAAGCGCCAGAACUACAGAAAUGUAGUUGACGAGGAGGAGGUUUAUCGAAUUUUCGGCGGAGGCCUUCAAA [U65G C70U]	0.00416 ± 0.00036	2.98 ± 0.34	0.000728 ± 6e-05	0.00238 ± 0.00036	0.00315 ± 0.00024	5.75e-05 ± 5e-06	0.000203 ± 1.7e-05
AUAAAAGCGCCAGAACUACAGAAAUGUAGUUGACGAGGAGGAGGUUUGUCGGAUUUUCGGCGGAUGCCUCCAAA [A48G A52G]	1.36e-05 ± 9.9e-07		< 1e-05				
AUAAAAGCGCCAGAACUACAGAAAUGUAGUUGACGAGGAGGAGGUCUAUCGAAUUUUCGGCGGAUGCCUACAAA [U46C C70A]	0.000216 ± 5.4e-05		0.000105 ± 1.7e-05	0.000151 ± 2.5e-05	0.000347 ± 8.7e-05		5.11e-05 ± 2.3e-05
AUAAACGCGCCAGAAGUACAGAAAUGUAGUUGACGAGGAGGAGGUUUAUCGAAUUUUCGGCGGAUGCCUCCAAA [A6C C16G]	1.5e-05 ± 3.9e-07	9.79 ± 0.48	< 1e-05			< 1e-05	< 1e-05
AUAAAAGCGCCAGAACUACAGAAAUGUAGUUGACGAGGAGGAGGUUUAACGAAUUUUCGGCGGAUGCCUCCAAA [U49A]	2.06e-05 ± 1.8e-06			2.11e-05 ± 3e-06	1.9e-05 ± 1.6e-06	< 1e-05	
AUAAAAGCGCCAGAAUUACAGAAAUGUAGUUGACGAGGAUGAGGUUUAUCGAAUUUUCGGCGGAUGCCUCCAAA [C16U G40U]	0.00189 ± 0.00089		0.00095 ± 0.00016	0.00106 ± 0.00024	0.00317 ± 0.0006	0.000134 ± 2e-05	0.000209 ± 5e-05
AUAAAAGCGCCAGAAUUACAGAAAUGUAGUUGACGAGGAGGAGGUUGAUCGUAUUUUCGGCGGAUGCCUCCAAA [C16U U47G A52U]	0.000133 ± 8.3e-06	1.23 ± 0.2	4.73e-05 ± 1.3e-05	8.23e-05 ± 2.3e-05	0.000122 ± 2.5e-05		
AUAAAAGCGCCAGAACUACAGAAAUGUAGUUGACGAGGAGGAGGUUUAUCGUAUUUUCGGCGGAUGCAUCCAAA [A52U C68A]	2.14e-05 ± 8.2e-06						
AUAAAAGCGCCAGAACUACAGAAAUGUAGUUGACGAGGAGGAGGUUUAUUGAAUUUUCGUCGGAUGCCUUCAAA [C50U G60U C70U]	1.49e-05 ± 6e-06						
AUAAAAGCGCUAGAACUACAGAAAUGUACUUGACGAGGAGGAGGUUUAUGGAAUUUUCGGCGGAUGCGUCCAAA [C11U G29C C50G C68G]	7.23e-05 ± 1.9e-05		7.71e-05 ± 2.1e-05	9.67e-05 ± 1.5e-05	5.44e-05 ± 1e-05		0.000134 ± 2.7e-05
AUAAAAGCGCCAGAACUACAGAAAUGUAGUUGACGAAGGGGAGGUUUAUCGAAUUUUCGGCGGAUGCCUCCAAA [G37A A39G]	0.00599 ± 0.00079	3.9 ± 0.74	0.00068 ± 0.00012	0.00235 ± 0.0003	0.00437 ± 0.00039	6.85e-05 ± 7.9e-06	0.000243 ± 4.5e-05
AUAAAAGCGCCAAAACUACAGAAAUGUAGUCGACGAGGAGGAGGUUUAUCGAAUUUUCGGCGGAUGCCUCCAAA [G13A U31C]	0.00123 ± 0.00012	4.56 ± 0.74	0.000169 ± 3.3e-05	0.000441 ± 6.9e-05	0.00084 ± 0.00011		3.44e-05 ± 1.2e-05
AUAAAAGCGCCAGAAGUACAGAAAUGUAGUUGACGAGGAGGAGGUUUAUCGAAUUUUAGGCGGAUGCCUCCAAA [C16G C58A]	0.000242 ± 1.6e-05	3.44 ± 0.41	3.73e-05 ± 9.2e-06	0.000104 ± 1.8e-05	0.000178 ± 3.1e-05		
AUAAAAGCGCCAGAACUACAGAAAUUUAGUUGACGAGGAGGAGGUUUAUCGAAUUUUCGGCGGAUGCCUACAAA [G26U C70A]	0.000113 ± 4.5e-05		6.27e-05 ± 1.2e-05	0.0002 ± 4e-05	0.000106 ± 1.9e-05		7.79e-05 ± 2.3e-05
AUAAAAGCGCCAGAACUACAGAAAUGUAGUUGACGAGGAGGAAGUUUAUCGACUUUUCGGCGGAUGCCUCCAAA [G43A A53C]	6.63e-05 ± 3.6e-06		< 1e-05				< 1e-05
AUAAAAGCGCCUGAACUACAGAAAUGUAGUUGACGAGGAGGAGGUUUAUCGCUUUUUCGGCGGAUGCCUGCAAA [A12U A52C A53U C70G]	1.09e-05 ± 3.5e-06						
AUAAAAGCGCCAGAACUACAGAAAUGUAGUUGACGAGGACGAGGUUAAUCGAAUUUUCGGCGGAUGCCUCCAAA [G40C U47A]	0.00182 ± 0.0003	1.17 ± 0.31	0.000511 ± 0.0001	0.00128 ± 0.00024	0.0017 ± 0.00019	7.98e-05 ± 1.1e-05	0.000192 ± 3.4e-05
